B1: FIP200ΔN1115:Luciferase [human] / GST:NDP52 [human] (parent complex)
chain 1: ENYQVGLAELRTLMTIEKDQCISELISRHEEESNILKAELNKVTSLHNQAFEIEKNLKEQIIELQSKLDSELSALERQKDEKITQQEEKYEAIIQNLEKDRQKLVSSQEQDREQLIQKLNCEKDEAIQTALKEFKLEREVVEKELLEKVKHLENQIAKSPAIDSTRGDSSSLVAELQEKLQEEKAKFLEQLEEQEKRKNEEMQNVRTSLIAEQQTNFNTVLTREKMRKENIINDLSDKLKSTMQQQERDKDLIESLSEDRARLLEEKKKLEEEVSKLRSSSFVPSPYVATAPELYGACAPELPGESDRSAVETADEGRVDSAMETSMMSVQENIHMLSEEKQRIMLLERTLQLKEEENKRLNQRLMSQSMSSVSSRHSEKIAIRDFQVGDLVLIILDERHDNYVLFTVSPTLYFLHSESLPALDLKPGEGASGASRRPWVLGKVMEKEYCQAKKAQNRFKVPLGTKFYRVKAVSWNKKV
chain 2: MEETIKDPPTSAVLLDHCHFSQVIFNSVEKFYIPGGDVTCHYTFTQHFIPRRKDWIGIFRVGWKTTREYYTFMWVTLPIDLNNKSAKQQEVQFKAYYLPKDDEYYQFCYVDEDGVVRGASIPFQFRPENEEDILVVTTQGEVEEIEQHNKELCKENQELKDSCISLQKQNSDMQAELQKKQEELETLQSINKKLELKVKEQKDYWETELLQLKEQNQKMSSENEKMGIRVDQLQAQLSTQEKEMEKLVQGDQDKTEQLEQLKKENDHLFLSLTEQRKDQKKLEQTVEQMKQNETTAMKKQQELMDENFDLSKRLSENEIICNALQRQKERLEGENDLLKRENSRLLSYMGLDFNSLPYQVPTSDEGGARQNPGLAYGNPYSGIQESSSPSPLSIKKCPICKADDICDHTLEQQQMQPLCFNCPICDKIFPATEKQIFEDHVFCHSL
B2: FIP200ΔN1115:Luciferase [human] / GST:SINTBADaa5-85 [human] (parent complex)
chain 1: B1 chain 1
chain 2: FEDDISILTQEALGPSEVWLDSPGDPSLGGDMCSASHFALITAYGDIKERLGGLERENATLRRRLKVYEIKYPLISDFGEE
B3: FIP200ΔN1115:Luciferase [human] / GST:NAP1aa5–75 [human] (parent complex)
chain 1: B1 chain 1
chain 2: VEDDICILNHEKAHKRDTVTPVSIYSGDESVASHFALVTAYEDIKKRLKDSEKENSLLKKRIRFLEEKLIA

Variants of: B1
Assay: LUMIER assay; HEK293ET cell lysates; bacterially expressed GST bait; read off a plot

In order of falling response:
1. chain 1 F459S  ~52 fold binding
2. chain 1 T350A  ~51 fold binding
3. chain 1 V461S  ~50 fold binding
4. chain 1 E348A  ~49 fold binding
5. chain 1 Q352A  ~44 fold binding
6. chain 1 L347A  ~42 fold binding
7. chain 1 L351A  ~38 fold binding
8. chain 1 R349A  ~33 fold binding
9. chain 1 L353A  ~32 fold binding
10. chain 1 A452S  ~22 fold binding
11. chain 1 N457S  ~15 fold binding

Variants of: B2
Assay: LUMIER assay; HEK293ET cell lysates; read off a plot

In order of rising response:
1. chain 1 F459S  ~6.2 fold binding
2. chain 1 V461S  ~6.4 fold binding
3. chain 1 N457S  ~7.8 fold binding
4. chain 1 A452S  ~280 fold binding

Variants of: B2
Assay: LUMIER assay; HEK293ET cell lysates; bacterially expressed GST bait; read off a plot

In order of rising response:
1. chain 1 A452S  ~59 fold binding
2. chain 1 L347A  ~99 fold binding
3. chain 1 L351A  ~110 fold binding
4. chain 1 R349A  ~170 fold binding
5. chain 1 L353A  ~170 fold binding
6. chain 1 T350A  ~180 fold binding
7. chain 1 E348A  ~200 fold binding
8. chain 1 Q352A  ~210 fold binding

Variants of: B3
Assay: LUMIER assay; HEK293ET cell lysates; read off a plot

In order of falling response:
1. chain 1 A452S  ~12 fold binding
2. chain 1 V461S  ~1.7 fold binding
3. chain 1 F459S  ~1.4 fold binding
4. chain 1 N457S  ~1.4 fold binding

— paper PMC6477152 (2019)
